Source: patent publication US20250355001A1 (GTINVENT, published 2025)
Read-outs that look alike come from different tables or passages of the source. Where no end group is shown, it is not given here. The star is where a group is joined. Biotin = O=C1N[C@H]2[C@H](CS[C@H]2CCCCC(=O)*)N1

Tests used:
[1] = target: T1, full length human tau protein 2N4R (hT40) (human, UniProt P10636 1-758); experiment: SPR, scAb captured, tau analyte
T1 construct: recombinant; also called T441
How it was run: (§1)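 scAb captured on flow cell 2 of an antibody-coated chip, flow cell 1 as reference; tau analyte injected 120 s association, 420 s dissociation, glycine pH 2.0 regeneration, in multi-cycle or single-cycle kinetics format. Responses fitted to a 1:1 binding model for kinetics and affinity.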
Target sequence in this assay (P10636 other isoform, or with tags, fused parts or gaps limits assumed): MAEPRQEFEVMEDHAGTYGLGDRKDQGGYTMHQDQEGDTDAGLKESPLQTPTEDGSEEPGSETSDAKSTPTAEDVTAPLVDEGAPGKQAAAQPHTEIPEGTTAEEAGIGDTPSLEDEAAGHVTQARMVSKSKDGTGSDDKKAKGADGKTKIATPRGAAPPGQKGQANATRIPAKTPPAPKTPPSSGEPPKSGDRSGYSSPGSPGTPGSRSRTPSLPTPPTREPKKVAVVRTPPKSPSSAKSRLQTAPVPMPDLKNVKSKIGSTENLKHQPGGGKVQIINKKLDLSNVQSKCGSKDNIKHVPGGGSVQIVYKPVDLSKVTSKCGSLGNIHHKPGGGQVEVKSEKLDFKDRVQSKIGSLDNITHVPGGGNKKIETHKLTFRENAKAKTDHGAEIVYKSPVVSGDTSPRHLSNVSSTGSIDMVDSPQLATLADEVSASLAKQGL

[2] = target: T2, tau parent peptide 319-331 (TSKCGSLGNIHHK); experiment: ELISA on biotinylated peptide over streptavidin
T2 peptide: Biotin-TSKCGSLGNIHHK
Description: Briefly, 5 μg/ml streptavidin (Thermo Fisher) was adsorbed to Nunc 96-well MaxiSorp plates and following incubation at 37° C. for 1 h, the plates were washed as normal and blocked with 2% MPBS. N-terminally biotinylated peptides (Prolmmune Ltd) were added to the plates and incubated for 1 h at 37° C. Subsequently, test scAbs at starting concentrations of 100-500 nM was added and double diluted across the plate for each peptide and incubated for 1 h at 37° C. Rest of the ELISA was conducted as described above and the plates were read at absorbance 450 nm. Immunoreactivity of the scAb of interest was quantified as the % of scAb was bound for each peptide at a chosen concentration (FIG. 15-20).

[3] = target: T1, full length human tau protein 2N4R …; experiment: hT40 ELISA
Target sequence in this assay (P10636 other isoform, or with tags, fused parts or gaps limits assumed): as above

[4] = target: T1, full length human tau protein 2N4R …; experiment: SPR, summary table
Description: The capture antibody was diluted 1/100 in 10 mM Sodium acetate buffer pH 5.0 and passed over the activated chip surface for a period of at least 420 s. Final ligand immobilisation levels over 12,000 RU were deemed to be satisfactory.
The scAb to be tested was added only to flow cell 2 so that flow cell 1 could act as a control to subtract any interaction with the analyte and the chip surface. […] The multi-cycle protocol was as follows-Three start-up cycles composed of an initial capture, to the desired level, of the scAb to be tested was performed followed by a 30 s injection of glycine buffer pH 2.0 after each cycle to regenerate the chip surface. […] The target was added for a 120 s association period and 420 s dissociation period followed by another regeneration, 30 s injection of glycine buffer pH 2.0 in between each cycle.
The single cycle kinetics protocol was similar and utilised the same level of scAb capture. […] In single cycle kinetics the regeneration step was performed only after the final analyte concentration was added. Binding responses were analysed in Biacore X100 evaluation software and data fitted to a 1:1 binding model to obtain kinetic and affinity characterisation.
Target sequence in this assay (P10636 other isoform, or with tags, fused parts or gaps limits assumed): as above

tau fragment 348-441 = tau fragment 348-441 (human, UniProt P10636 665-758); experiment: direct ELISA
[5] = target: T1, full length human tau protein 2N4R …; experiment: ELISA
Description: (§2) A series of binding ELISA was performed using various truncated versions of the tau protein and 13mer peptide libraries spanning the entire hT40 molecule for mapping the epitopes of anti-tau scAbs (Full list of protein antigens used is given in Table 14). In general, ELISA plates were coated with 1 μg/ml hT40 or dGA or dGAE or other truncated versions of the protein and in the case of biotinylated peptides, plates were coated with 5 μg/ml Streptavidin followed by 1 μg/ml biotinylated peptide. The plates were blocked with 2% MPBS and scAb samples added at desired starting concentrations and double diluted across the plate. Binding was detected using anti-Human C Kappa HRP conjugated secondary antibody and the resulting immunoreaction was developed and absorbance values measured as described above.

[6] = target: T1, full length human tau protein 2N4R …; experiment: Biacore
How it was run: as §1
Target sequence in this assay (P10636 other isoform, or with tags, fused parts or gaps limits assumed): as above

dGA (tau 297-390) [7] = target: T3, dGA (tau 297-390) (human, UniProt P10636 614-707); experiment: SPR, scAb captured, tau analyte
How it was run: as §1
Target sequence in this assay (P10636 614-707 limits assumed): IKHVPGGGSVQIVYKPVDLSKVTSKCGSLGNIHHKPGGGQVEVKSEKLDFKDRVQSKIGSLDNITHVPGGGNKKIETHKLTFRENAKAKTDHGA

tau fragment 369-390 = target: T4, tau fragment 369-390 (human); experiment: direct ELISA
T4 peptide: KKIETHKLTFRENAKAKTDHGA

tau fragment 337-368 [8] = target: tau fragment 337-368 (human); experiment: direct ELISA
[9] = target: T5, tau parent peptide 367-379 (GNKKIETHKLTFR) (human); experiment: ELISA on biotinylated peptide over streptavidin
T5 peptide: Biotin-GNKKIETHKLTFR

aggregated dGAE [10] = target: T6, aggregated dGAE (human, UniProt P10636 614-708, limits assumed); experiment: sandwich ELISA, Triton-treated aggregates titrated, S1D12 mAb capture
T6 construct: dGAE aggregated in vitro with DTT, 700 rpm, 37 C, 24 h; also called dGAE aggregates; dGAE agg
Description: (§3) For aggregation, 1000 μL 100 μM dGAE+10 μL 10 mM DTT was added to a ‘LoBind’ microfuge tubes and agitated at 700 RPM/37° C. for 24 hours. Resulting sample centrifuged at 17,000×g/4° C. for 60 min and supernatant discarded to remove left over monomer. Pellet resuspended in half the original volume for future experiments and hereafter referred to as ‘aggregates’. 1 μl of aggregates was added to 1 ml of PBS and SDS was added to a final concentration of 1% (w/v). This was left to incubate on lab bench for 1 h with gentle agitation every 15 minutes. In order to neutralize the SDS effect on ELISA, Triton X-100 added to a final concentration of 3% (v/v) and mixed gently by pipetting to prevent any bubble formation. […] Similarly aggregates treated with only SDS or Triton X-100, untreated aggregates, dGAE monomers treated with only SDS or SDS+Titon X-100 were also added to designated wells as controls. All samples were then double diluted across the plate in final volumes of 100 μl. The final column was left with no protein to act as a blank.

aggregated dGAE [11] = target: T6, aggregated dGAE; experiment: sandwich ELISA, S1D12 mAb capture, SDS + Triton treated dGAE aggregates
Description: as §3

aggregated dGAE [12] = target: T6, aggregated dGAE; experiment: ELISA, direct immobilisation, SDS + Triton treated dGAE aggregates
[13] = target: T1, full length human tau protein 2N4R …; experiment: sandwich ELISA, S1D12 mAb capture, scAb detection
How it was run: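 Read-out was HRP anti-HuCk with absorbance at 450 nm (positive above 0.3 after background subtraction) or chemiluminescence, including directly HRP-conjugated scAbs.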
Target sequence in this assay (P10636 other isoform, or with tags, fused parts or gaps limits assumed): as the sequence (P10636 other isoform, or with tags, fused parts or gaps limits assumed) above

tau fragment 369-391 = target: T7, tau fragment 369-391 (human); experiment: direct ELISA
T7 peptide: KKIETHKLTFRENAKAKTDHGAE

tau fragment 186-350 = target: T8, tau fragment 186-350 (human, UniProt P10636 503-667); experiment: direct ELISA
T8 construct: also called m186-350

tau fragment 337-368 [14] = target: tau fragment 337-368 (human); experiment: direct ELISA; remark: listed apart in the source
tau fragment 275-305 = tau fragment 275-305 (human); experiment: direct ELISA
dGAE (tau 297-391) = target: T9, dGAE (tau 297-391) (human, UniProt P10636 614-708); experiment: ELISA
T9 construct: monomer; also called dGAE95
Description: as §2

dGA (tau 297-390) [15] = target: T3, dGA (tau 297-390); experiment: ELISA
Description: as §2

[16] = target: T1, full length human tau protein 2N4R …; experiment: hT40 ELISA; remark: listed apart in the source
Description: as §2

[17] = target: T1, full length human tau protein 2N4R …; experiment: hT40 ELISA; remark: listed apart in the source
Target sequence in this assay (P10636 other isoform, or with tags, fused parts or gaps limits assumed): as the sequence (P10636 other isoform, or with tags, fused parts or gaps limits assumed) above

[18] = target: T1, full length human tau protein 2N4R …; experiment: hT40 ELISA; remark: listed apart in the source
tau fragment 1-111 = tau fragment 1-111 (human, UniProt P10636 1-111); experiment: direct ELISA
Description: as §2

tau fragment 1-49 = target: T10, tau fragment 1-49 (human); experiment: direct ELISA
T10 construct: also called Tau 1-49
T10 peptide: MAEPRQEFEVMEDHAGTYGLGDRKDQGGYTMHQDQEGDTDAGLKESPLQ
Description: as §2

tau fragment 337-368 (human), sequence (peptide, as listed by the source): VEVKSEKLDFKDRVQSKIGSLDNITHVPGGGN
tau fragment 348-441, sequence (P10636 665-758): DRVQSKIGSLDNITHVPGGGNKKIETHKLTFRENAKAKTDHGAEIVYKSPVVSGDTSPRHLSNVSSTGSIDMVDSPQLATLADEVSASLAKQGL
T8 sequence (P10636 503-667): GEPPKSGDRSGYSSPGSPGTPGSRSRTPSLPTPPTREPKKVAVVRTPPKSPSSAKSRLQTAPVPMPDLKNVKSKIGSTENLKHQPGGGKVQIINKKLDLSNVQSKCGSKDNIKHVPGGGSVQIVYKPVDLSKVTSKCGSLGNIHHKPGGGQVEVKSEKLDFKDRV
tau fragment 275-305 (human), sequence (peptide, as listed by the source): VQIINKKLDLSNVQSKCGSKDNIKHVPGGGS

B1: CE2 scAb (scFv, not shown: small tags and cut ends)
scFv: QVQLQESGPSLVKPSQTLSLTCTVSGFSLTNYPVGWVRQAPGKALEWIGNIENDGSANYASALKSRLSITRDTSKNQVSLSLSSATTEDTAVYYCGREFGGSDGYTYFVDIDYWGPGLLVTVSSEGKSSGASGESKVDDQAVLTQPSSVSKSLGQSVSITCSGSSSNVGYGNYVSWFQQVPGSAPKILIYGATSRASGVPDRFSGSRSGNTATLTITSLQAEDEADYYCASYDGSSSGVFGSGTRLTVLG
notes: scAb
- Kd [1]: 5030 pM
- koff [1]: 0.00108 s⁻¹
- kon [1]: 214000 M⁻¹ s⁻¹
- binding result [2]: binds
- EC50 (read off the curve) [3]: ~0.1 µg/mL
- Kd [4]: 5030 pM

B2: CB2 scAb (scFv, not shown: small tags and cut ends)
scFv: QVQLQESGPSLVKPSQTLSLTCTVSGFSLSTNSVGWVRQAPGKAPEWVAGIDTDGEEGFNPVLKSRLSITRDTSKSQVSLSLSNVTSEDTAVYYCGRSYRTDGLAYGYVQAIDYWGPGLLVTISSEGKSSGASGESKVDDQSVLTQPSSVSGSPGQTVSITCSGSYIGSSGVGWFQQLPGSGLRTIIVASDGRPSGVPDRFSMSKSGNTATLTISSLQAEDEADYFCGSSDRTQYTGLFGSGTRLTVLG
notes: scAb
- binding result (tau fragment 348-441): binds
- binding result [5]: binds

B3: S1G2 scAb (scFv, not shown: small tags and cut ends)
scFv: QVQLQESGPSLVKPSQTLSLTCTVSGFSLTSNSVGWVRQAPGKAPEWVAGIDTDGEEGYNPALNSRLSITRDTSKSQVSLSLSSVTSEDTAVYYCGRSYRADGLAYGYVQAIDYWGPGLLVTVSSEGKSSGASGESKVDDQAVVTQPSSVSGSLGQRVSITCSGSFIGISSVGWFQQLPGSGLRTIIVASDGRPSGVPDRFSMSKSGNTATLTISSLQAEDEADYFCGSSDRTPYTGVFGSGTRLTVLG
notes: scAb
- Kd [6]: 600 pM
- Kd [1]: 170 pM
- koff [1]: 0.00018 s⁻¹
- kon [1]: 1.06e+06 M⁻¹ s⁻¹
- Kd (dGA (tau 297-390) [7]): 447 pM
- koff (dGA (tau 297-390) [7]): 0.00035 s⁻¹
- kon (dGA (tau 297-390) [7]): 783000 M⁻¹ s⁻¹
- EC50 (read off the curve) (tau fragment 369-390): ~0.4 µg/mL
- binding result (tau fragment 337-368 [8]): no binding (tested: 25 ug/ml)
- EC50 (read off the curve) [9]: ~10 µg/mL
- EC50 (read off the curve) (aggregated dGAE [10]): ~0.05 µg/mL
- LoD (aggregated dGAE [11]): 2 ng/mL
- LoD (aggregated dGAE [12]): 16 ng/mL
- LoD chemiluminescence detection [13]: 0.12 ng/mL
- LoD colourimetric detection [13]: 2 ng/mL
- EC50 (read off the curve) (tau fragment 369-391): ~0.5 µg/mL
- binding result (tau fragment 186-350): no binding (tested: 25 ug/ml)
- Kd [4]: 170 pM

B4: NS1G7 scAb (scFv, not shown: small tags and cut ends)
scFv: QVQLQESGPSLVKPSQTLSLTCTVSGFSLTSYGVGWVRQAPGKTLEWISSISSGGTTFYNPALKSRLSITRDTSESQVSLSLSSVTTEDTAVYYCTRDVHIYYNDYGAAYGDRDYWGPGLLVTVSSEGKSSGASGESKVDDQAVVTQPPSVSGSPGQRVSITCSGSSSNIGGGNYVSWYQQLPGSGLRTLIYGTTSRASGVPDRFSGSGSGNTATLTISSLQAEDEADYYCASYDTNSGSVFGSGTRLTVLG
notes: scAb
- binding result (tau fragment 337-368 [14]): binds
- binding result (tau fragment 275-305): binds
- binding result [5]: binds
- binding result (dGAE (tau 297-391)): binds
- binding result (dGA (tau 297-390) [15]): binds

B5: 412G11 (scFv)
scAb: QVRLQESGPSLVKPSQTLSLTCTVSGFSLTSYALGWVRQAPGRAPEWIGNIWRGGRIEYNPALKSRLSITRDTSKSQVSLSLSSVTTEDTAVYYCSRSGGDWGPGLLVTVSSEGKSSGASGESKVDDQAVLTQPSSVSGSLGQRVSITCSGSSSNVGYGNYVGWYQQVPGSAPKLLIYGATSRASGVPDRFSGSRSENTATLTISSLQAEDEADYYCASYDRSESVVFGSGTRLTVLG
- EC50 (read off the curve) [16]: ~2 µg/mL
- EC50 (read off the curve) [17]: ~2 µg/mL
- EC50 (read off the curve) [18]: ~5 µg/mL

B6: 3aG3 scAb (scFv, not shown: small tags and cut ends)
scFv: QVQLQESGPSLVKPSQTLSLTCTVSGFSLSSNGVGWVRQAPGKVPEWVGDISSSGKAYANPALKSRLSITRDTAKTQVFLSLSSVTTEDTAVYYCVRCRDGGVSYGYDIDYWGPGLLVTVSSEGKSSGASGESKVDDQAVLTQPPSVSGSPGQRVSITCSGSSSNIGGGNYLSWFQQVPGSAPKLLIYGATSRASGVPDRFSGSRSGNTATLTISSLQAEDEADYYCASFDTSSGGIFGAGTRLTVLG
notes: scAb
- Kd [1]: 6100 pM
- koff [1]: 0.000387 s⁻¹
- kon [1]: 62900 M⁻¹ s⁻¹
- EC50 (read off the curve) (tau fragment 1-111): ~0.5 µg/mL
- EC50 (read off the curve) (tau fragment 1-49): ~1 µg/mL
